This is an account of results in patent US20230061804A1.

The assay concerns the target mRFP1-ENLYFQS-(r8)8-Tail. In words: live imaging of co-transfected HaCATs; client signal inside against outside KG-like granules.

With sfGFP-dTEVP, the partition coefficient (P) was 2.1.
